Experimental findings from US20210388110A1 are described below.

Residue numbers refer to the chain shown, from its start.

The assay addresses extracellular matrix (BD Matrigel). The experiment in a line: ECL on Matrigel-coated plate, relative to MRAH-G1d/MRAL-k0.

B1: TR01H109-E2702GsKsc/GCH065-E2704sEpsc/L0011-k0 (bispecific antibody, human IgG4 S228P, kappa, N297A)
heavy 1: QVQLVESGGGLVQPGRSLRLSCAASGFTFSNAWMHWVRQAPGKGLEWVAQIKDKSQNYATYVAESVKGRFTISRDDSKNSLYLQMNSLKTEDTAVYYCRYVHYAAGYGVDAWGQGTTVTVSSASTKGPSVFPLAPCSRSTSESTAALGCLVKDYFPEPVTVSWNSGALTSGVHTFPAVLQSSGLYSLSSVVTVPSSSLGTKTYTCNVDHKPSNTKVDKRVESKYGPPCPPCPAPEFRGGPKVFLFPPKPKDTLMISRTPEVTCVVVDVSQEDPEVQFNWYVDGVEVHNAKTKPREEQFASTYRVVSVLTVLHQDWLNGKEYKCKVSNKGLPSSIEKTISKAKGQPREPQVYTLPPSQKEMTKNQVSLTCLVKGFYPSDIAVEWESNGQPENNYKTTPPVLDSDGSFFLYSKLTVDKSRWQEGNVFSCSVMHEALHNRYTQKSLSLSP
heavy 2: QVQLVQSGAEVKKPGASVTVSCKASGYTFTDYEMHWIRQPPGEGLEWIGAIDGPTPDTAYSEKFKGRVTLTADKSTSTAYMELSSLTSEDTAVYYCTRFYSYTYWGQGTLVTVSSASTKGPSVFPLAPCSRSTSESTAALGCLVKDYFPEPVTVSWNSGALTSGVHTFPAVLQSSGLYSLSSVVTVPSSSLGTQTYTCNVDHKPSNTKVDKRVESKYGPPCPPCPAPEFRGGPKVFLFPPKPKDTLMISRTPEVTCVVVDVSQEDPEVQFNWYVDGVEVHNAKTKPREEQFASTYRVVSVLTVLHQDWLNGKEYKCKVSNKGLPSSIEKTISKAKGQPREPQVYTLPPSQEEMTKNQVSLTCLVKGFYPSDIAVEWESNGQPENNYKTTPPVLDSDGSFFLYSKLTVDKSRWQEGNVFSCSVMHEALHNHYTQESLSLSP
light: DIVMTQSPLSLPVTPGEPASISCRSSQPLVHSNRNTYLHWYQQKPGQAPRLLIYKVSNRFSGVPDRFSGSGSGTDFTLKISRVEAEDVGVYYCGQGTQVPYTFGQGTKLEIKRTVAAPSVFIFPPSDEQLKSGTASVVCLLNNFYPREAKVQWKVDNALQSGNSQESVTEQDSKDSTYSLSSTLTLSKADYEKHKVYACEVTHQGLSSPVTKSFNRGEC
With B1, the ECM binding ratio (standard = 1) stood at 0.7.

B2: TR01H067-E2702GsKsc/GCH054-E2704sEpsc/L0201-k0 (bispecific antibody, human IgG4 S228P, kappa, N297A)
heavy 1: B1 heavy 1 with V62Y, G106S
heavy 2: B1 heavy 2 with P54E
light: B1 light with L29P
B2: the ECM binding ratio (standard = 1) stood at 0.5.

B3: TR01H067-E2702GsKsc/GCH054-E2704sEpsc/L0222-k0 (bispecific antibody, human IgG4 S228P, kappa, N297A)
heavy 1: B1 heavy 1 with V62Y, G106S
heavy 2: B1 heavy 2 with P54E
light: B1 light with P28S, L29P, L38I, H39Q, G94Y
As to B3, the ECM binding ratio (standard = 1) was 0.6.

B4: TR01H109-E2702GsKsc/GCH094-E2704sEpsc/L0011-k0 (bispecific antibody, human IgG4 S228P, kappa, N297A)
heavy 1: B1 heavy 1
heavy 2: B1 heavy 2 with I37V, P40A, I48M, P54E
light: B1 light
For the molecule B4, the ECM binding ratio (standard = 1) is 0.4.

B5: TR01H113-E2702sKsc/GCH065-E2704sEpsc/L0011-k0 (bispecific antibody, human IgG4 S228P, kappa, N297A)
heavy 1: B1 heavy 1 with L11V, R16G, D75A, L81I, A111I, R437H
heavy 2: B1 heavy 2
light: B1 light
As for B5, the ECM binding ratio (standard = 1) turned out to be 0.3.
